In patent US20060240023A1 (Takeda / Millennium, published 2006):

Molecular target: T1, ASK1-KR (human ASK1 with lysine 709 at the ATP-binding site replaced with arginine) (human, UniProt Q99683 1-1374)
T1 construct: Bait in the yeast two-hybrid screen (Brent's system); also called bait
T1 sequence (looked up): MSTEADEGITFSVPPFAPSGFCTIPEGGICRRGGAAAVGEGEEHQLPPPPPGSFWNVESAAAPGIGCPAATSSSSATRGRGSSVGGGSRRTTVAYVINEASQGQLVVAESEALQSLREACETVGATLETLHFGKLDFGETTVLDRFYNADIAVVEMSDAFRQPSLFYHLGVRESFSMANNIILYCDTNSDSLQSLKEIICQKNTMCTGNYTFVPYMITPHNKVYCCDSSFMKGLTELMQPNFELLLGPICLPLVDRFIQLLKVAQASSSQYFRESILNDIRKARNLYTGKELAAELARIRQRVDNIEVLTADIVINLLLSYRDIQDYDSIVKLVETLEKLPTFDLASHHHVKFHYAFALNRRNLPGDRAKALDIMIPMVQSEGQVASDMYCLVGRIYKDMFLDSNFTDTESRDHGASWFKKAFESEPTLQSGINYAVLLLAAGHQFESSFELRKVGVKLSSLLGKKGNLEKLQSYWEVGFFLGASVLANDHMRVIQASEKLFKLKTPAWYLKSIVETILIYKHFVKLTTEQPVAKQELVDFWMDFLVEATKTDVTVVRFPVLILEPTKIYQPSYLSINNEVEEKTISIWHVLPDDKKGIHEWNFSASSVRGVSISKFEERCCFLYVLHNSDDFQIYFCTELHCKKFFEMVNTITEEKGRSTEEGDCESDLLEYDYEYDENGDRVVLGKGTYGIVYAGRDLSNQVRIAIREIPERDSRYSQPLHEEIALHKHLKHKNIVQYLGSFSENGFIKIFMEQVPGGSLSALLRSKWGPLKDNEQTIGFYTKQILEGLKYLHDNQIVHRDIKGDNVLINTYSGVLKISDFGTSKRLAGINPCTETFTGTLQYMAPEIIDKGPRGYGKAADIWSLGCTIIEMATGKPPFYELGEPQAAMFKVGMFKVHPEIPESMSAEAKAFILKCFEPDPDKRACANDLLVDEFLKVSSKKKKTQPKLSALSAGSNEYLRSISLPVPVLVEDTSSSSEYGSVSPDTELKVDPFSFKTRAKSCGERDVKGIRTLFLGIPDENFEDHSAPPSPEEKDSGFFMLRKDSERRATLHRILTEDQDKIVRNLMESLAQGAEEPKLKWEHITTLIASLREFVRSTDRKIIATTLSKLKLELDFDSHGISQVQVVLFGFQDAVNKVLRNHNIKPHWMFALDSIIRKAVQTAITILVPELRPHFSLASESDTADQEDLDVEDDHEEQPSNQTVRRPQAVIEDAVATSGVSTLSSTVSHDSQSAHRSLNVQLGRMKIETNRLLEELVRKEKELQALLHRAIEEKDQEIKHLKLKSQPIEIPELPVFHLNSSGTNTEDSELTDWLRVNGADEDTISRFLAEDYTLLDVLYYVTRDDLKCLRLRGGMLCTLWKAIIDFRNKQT
Experiment: yeast two-hybrid (Brent's system), ASK1-KR as bait, fetal human brain expression library as prey; positive clone
Procedure: To identify the ASK1-binding protein, screening was conducted by the yeast two-hybrid method using Brent's system [Zervos et al., Cell, Vol. 72, p. 223-232, 1993; Gyuris et al., Cell, Vol. 75, p. 791-803, 1993] with ASK1-KR, prepared by replacing lysine (K) at the ATP-binding site (position 709) in the kinase domain of human ASK1 with arginine (R), as a bait and an expression library of fetal human brain origin as a prey. As a result, about 1200 positive clones were obtained. Database search of one of them based on its base sequence identified it as a portion of the protein coding region of the gene designated as “PGR1” (a portion corresponding to amino acid positions 35 to 127). […] Since this protein was identified as an ASK1-binding protein, it was designated as ASK1 binding protein 1 (ABP1).

binding result: binds
B1: ABP1 (PGR1) fragment, amino acid positions 35 to 127, positive clone of the two-hybrid screen (other)
chain: MREDIASLTREHGRAYLRNRSKLWEMDNMLIQIKTQVEASEESALNHLQNPGDAAEGRAAKRCEKAEEKAKEIAKMAEMLVELVRRIEKSESS
notes: Prey from an expression library of fetal human brain origin; also called PGR1 (a portion corresponding to amino acid positions 35 to 127); prey clone
